Test in all cases: SPR
In general terms: Surface plasmon resonance follows binding to a sensor surface in real time, without labels.

The target of assay [1] is recombinant CIS in complex with Elongins BC (GST removed) (human) (UniProt Q9NSE2).
In assay [2] the target is recombinant SOCS1 in complex with Elongins BC (UniProt O15524).
Assay [3] deals with recombinant SOCS2 in complex with Elongins BC (UniProt O14508).

What is called IC50 is the concentration at which inhibition is half-maximal. Turning to “ARAP2-pY415 peptide (competitor phosphopeptide)”, the IC50 is 200 nM in assay [1], 50 nM in assay [2] and 1660 nM in assay [3].

The values above are taken from publication doi:10.1101/2025.04.28.650977.
